Results taken from patent US20110105394A1 (Novo Nordisk, published 2011).
*1 amine or outer side, *2 acyl side, *3 side chain or, on linkers, in order; H or OH if unused. Bridges are numbered along the chain shown (N, C = ends). Where no end group is shown, it is not given here. Side-chain parts run from the residue outwards. The star is where a group is joined. X1 = (S)‑4‑Carboxy‑4‑(17-carboxyheptadecanoylamino)butyryl, O=C(O)CCCCCCCCCCCCCCCCC(=O)N[C@@H](CCC(=O)*)C(=O)O; C20 diacid = O=C(O)CCCCCCCCCCCCCCCCCCC(=O)*; γGlu = O=C(O)[C@H](CCC(=O)[*:2])N[*:1]; Trx = NC[C@H]1CC[C@H](C(=O)O)CC1; AEEA = NCCOCCOCC(=O)O

T1: Amylin 3(a) receptor (human calcitonin receptor (CTa) with RAMP-3) (human, UniProt P30988 25-474; O60896 24-148, limits assumed)
T1 sequence (looked up) 1: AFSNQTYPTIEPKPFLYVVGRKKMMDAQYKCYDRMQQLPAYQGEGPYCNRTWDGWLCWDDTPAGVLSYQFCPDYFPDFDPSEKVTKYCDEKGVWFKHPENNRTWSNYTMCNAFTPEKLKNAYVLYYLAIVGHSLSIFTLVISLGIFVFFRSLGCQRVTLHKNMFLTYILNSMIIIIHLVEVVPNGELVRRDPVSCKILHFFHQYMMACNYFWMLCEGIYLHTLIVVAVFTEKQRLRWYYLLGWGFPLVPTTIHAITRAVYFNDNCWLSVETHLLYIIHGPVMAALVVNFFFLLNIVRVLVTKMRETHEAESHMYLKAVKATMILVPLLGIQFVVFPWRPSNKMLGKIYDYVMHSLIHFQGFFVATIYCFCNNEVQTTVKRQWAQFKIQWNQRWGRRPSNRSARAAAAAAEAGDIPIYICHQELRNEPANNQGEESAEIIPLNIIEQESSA
T1 sequence (looked up) 2: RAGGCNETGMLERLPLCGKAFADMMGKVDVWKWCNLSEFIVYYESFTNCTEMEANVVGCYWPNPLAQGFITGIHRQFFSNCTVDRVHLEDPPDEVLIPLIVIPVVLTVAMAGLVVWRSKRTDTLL


Biological target: T1, Amylin 3(a) receptor (human calcitonin …)
Assay: cell-based or functional assay

Binder | Potency Luciferase [nM]
HKCNTATCATQRLANFLHHSSNNFGPILPPTNVGSNTY-NH2 (disulfide 3-8; not fully specified (N-terminus); printed as N-alpha-[(S)-4-Carboxy-4-(19-carboxynonadecanoylamino)butyryl]-His-[His17]-pramlintide) [N-alpha-[(S)-4-Carboxy-4-(19-carboxynonadecanoylamino)butyryl]-His-[His17]-pramlintide] | 0.1
{C20 diacid-γGlu}-HCNTATCATQRLANFLHHSSNNFGPILPPTNVGSNTY-NH2 (disulfide 2-7) [N-alpha-[(S)-4-Carboxy-4-(19-carboxynonadecanoylamino)butyryl]-[His1,His17]-pramlintide] | 0.07
X1-HCNTATCATQRLANFLHHSSNNFGPILPPTNVGSNTY-NH2 (disulfide 2-7) [N-alpha-[(S)-4-Carboxy-4-(17-carboxyheptadecanoylamino)butyryl]-[His1,His17]-pramlintide] | 0.08
HHCNTATCATQRLANFLHHSSNNFGPILPPTNVGSNTY-NH2 (disulfide 3-8; not fully specified (N-terminus); printed as N-alpha-[(S)-4-Carboxy-4-(19-carboxynonadecanoylamino)butyryl]-His-[His1,His17]-pramlintide) [N-alpha-[(S)-4-Carboxy-4-(19-carboxynonadecanoylamino)butyryl]-His-[His1,His17]-pramlintide] | 0.1
{C20 diacid-4‑aminobutyryl}-CNTATCATQRLANFLHHSSNNFGPILPPTNVGSNTY-NH2 (disulfide 1-6) [N-alpha-[4-(19-Carboxynonadecanoylamino)butyryl]-[His17]-pramlintide (2-37)] | 0.06
{C20 diacid-γGlu-AEEA}-HHCNTATCATQRLANFLRHSSNNFGPILPPTNVGSNTY-NH2 (disulfide 3-8; SMILES CC[C@H](C)[C@H](NC(=O)[C@@H]1CCCN1C(=O)CNC(=O)[C@H](Cc1ccccc1)NC(=O)[C@H](CC(N)=O)NC(=O)[C@H](CC(N)=O)NC(=O)[C@H](CO)NC(=O)[C@H](CO)NC(=O)[C@H](Cc1c[nH]cn1)NC(=O)[C@H](CCCNC(=N)N)NC(=O)[C@H](CC(C)C)NC(=O)[C@H](Cc1ccccc1)NC(=O)[C@H](CC(N)=O)NC(=O)[C@H](C)NC(=O)[C@H](CC(C)C)NC(=O)[C@H](CCCNC(=N)N)NC(=O)[C@H](CCC(N)=O)NC(=O)[C@@H](NC(=O)[C@H](C)NC(=O)[C@@H]1CSSC[C@H](NC(=O)[C@H](Cc2c[nH]cn2)NC(=O)[C@H](Cc2c[nH]cn2)NC(=O)COCCOCCNC(=O)CC[C@H](NC(=O)CCCCCCCCCCCCCCCCCCC(=O)O)C(=O)O)C(=O)N[C@@H](CC(N)=O)C(=O)N[C@@H]([C@@H](C)O)C(=O)N[C@@H](C)C(=O)N[C@@H]([C@@H](C)O)C(=O)N1)[C@@H](C)O)C(=O)N[C@@H](CC(C)C)C(=O)N1CCC[C@H]1C(=O)N1CCC[C@H]1C(=O)N[C@H](C(=O)N[C@@H](CC(N)=O)C(=O)N[C@H](C(=O)NCC(=O)N[C@@H](CO)C(=O)N[C@@H](CC(N)=O)C(=O)N[C@H](C(=O)N[C@@H](Cc1ccc(O)cc1)C(N)=O)[C@@H](C)O)C(C)C)[C@@H](C)O) | 0.2
X1-RKCNTATCATQRLANFLRHSSNNFGPILPPTNVGSNTY-NH2 (disulfide 3-8; SMILES CC[C@H](C)[C@H](NC(=O)[C@@H]1CCCN1C(=O)CNC(=O)[C@H](Cc1ccccc1)NC(=O)[C@H](CC(N)=O)NC(=O)[C@H](CC(N)=O)NC(=O)[C@H](CO)NC(=O)[C@H](CO)NC(=O)[C@H](Cc1c[nH]cn1)NC(=O)[C@H](CCCNC(=N)N)NC(=O)[C@H](CC(C)C)NC(=O)[C@H](Cc1ccccc1)NC(=O)[C@H](CC(N)=O)NC(=O)[C@H](C)NC(=O)[C@H](CC(C)C)NC(=O)[C@H](CCCNC(=N)N)NC(=O)[C@H](CCC(N)=O)NC(=O)[C@@H](NC(=O)[C@H](C)NC(=O)[C@@H]1CSSC[C@H](NC(=O)[C@H](CCCCN)NC(=O)[C@H](CCCNC(=N)N)NC(=O)CC[C@H](NC(=O)CCCCCCCCCCCCCCCCC(=O)O)C(=O)O)C(=O)N[C@@H](CC(N)=O)C(=O)N[C@@H]([C@@H](C)O)C(=O)N[C@@H](C)C(=O)N[C@@H]([C@@H](C)O)C(=O)N1)[C@@H](C)O)C(=O)N[C@@H](CC(C)C)C(=O)N1CCC[C@H]1C(=O)N1CCC[C@H]1C(=O)N[C@H](C(=O)N[C@@H](CC(N)=O)C(=O)N[C@H](C(=O)NCC(=O)N[C@@H](CO)C(=O)N[C@@H](CC(N)=O)C(=O)N[C@H](C(=O)N[C@@H](Cc1ccc(O)cc1)C(N)=O)[C@@H](C)O)C(C)C)[C@@H](C)O) [N-alpha-[(S)-4-Carboxy-4-(17-carboxyheptadecanoylamino)butyryl]-Arg-[Arg17]-pramlintide] | 0.05

Second part, the binder after the results:

Potency Luciferase [nM] | Binder
0.02 | X1-HHCNTATCATQRLANFLHHSSNNFGPILPPTNVGSNTY-NH2 (disulfide 3-8; SMILES CC[C@H](C)[C@H](NC(=O)[C@@H]1CCCN1C(=O)CNC(=O)[C@H](Cc1ccccc1)NC(=O)[C@H](CC(N)=O)NC(=O)[C@H](CC(N)=O)NC(=O)[C@H](CO)NC(=O)[C@H](CO)NC(=O)[C@H](Cc1c[nH]cn1)NC(=O)[C@H](Cc1c[nH]cn1)NC(=O)[C@H](CC(C)C)NC(=O)[C@H](Cc1ccccc1)NC(=O)[C@H](CC(N)=O)NC(=O)[C@H](C)NC(=O)[C@H](CC(C)C)NC(=O)[C@H](CCCNC(=N)N)NC(=O)[C@H](CCC(N)=O)NC(=O)[C@@H](NC(=O)[C@H](C)NC(=O)[C@@H]1CSSC[C@H](NC(=O)[C@H](Cc2c[nH]cn2)NC(=O)[C@H](Cc2c[nH]cn2)NC(=O)CC[C@H](NC(=O)CCCCCCCCCCCCCCCCC(=O)O)C(=O)O)C(=O)N[C@@H](CC(N)=O)C(=O)N[C@@H]([C@@H](C)O)C(=O)N[C@@H](C)C(=O)N[C@@H]([C@@H](C)O)C(=O)N1)[C@@H](C)O)C(=O)N[C@@H](CC(C)C)C(=O)N1CCC[C@H]1C(=O)N1CCC[C@H]1C(=O)N[C@H](C(=O)N[C@@H](CC(N)=O)C(=O)N[C@H](C(=O)NCC(=O)N[C@@H](CO)C(=O)N[C@@H](CC(N)=O)C(=O)N[C@H](C(=O)N[C@@H](Cc1ccc(O)cc1)C(N)=O)[C@@H](C)O)C(C)C)[C@@H](C)O) [N-alpha-[(S)-4-Carboxy-4-(17-carboxyheptadecanoylamino)butyryl]-His-[His1,His17]-pramlintide]
0.1 | {C20 diacid-γGlu}-HCNTATCATQRLANFLRHSSNNFGPILPPTNVGSNTY-NH2 (disulfide 2-7; SMILES CC[C@H](C)[C@H](NC(=O)[C@@H]1CCCN1C(=O)CNC(=O)[C@H](Cc1ccccc1)NC(=O)[C@H](CC(N)=O)NC(=O)[C@H](CC(N)=O)NC(=O)[C@H](CO)NC(=O)[C@H](CO)NC(=O)[C@H](Cc1c[nH]cn1)NC(=O)[C@H](CCCNC(=N)N)NC(=O)[C@H](CC(C)C)NC(=O)[C@H](Cc1ccccc1)NC(=O)[C@H](CC(N)=O)NC(=O)[C@H](C)NC(=O)[C@H](CC(C)C)NC(=O)[C@H](CCCNC(=N)N)NC(=O)[C@H](CCC(N)=O)NC(=O)[C@@H](NC(=O)[C@H](C)NC(=O)[C@@H]1CSSC[C@H](NC(=O)[C@H](Cc2c[nH]cn2)NC(=O)CC[C@H](NC(=O)CCCCCCCCCCCCCCCCCCC(=O)O)C(=O)O)C(=O)N[C@@H](CC(N)=O)C(=O)N[C@@H]([C@@H](C)O)C(=O)N[C@@H](C)C(=O)N[C@@H]([C@@H](C)O)C(=O)N1)[C@@H](C)O)C(=O)N[C@@H](CC(C)C)C(=O)N1CCC[C@H]1C(=O)N1CCC[C@H]1C(=O)N[C@H](C(=O)N[C@@H](CC(N)=O)C(=O)N[C@H](C(=O)NCC(=O)N[C@@H](CO)C(=O)N[C@@H](CC(N)=O)C(=O)N[C@H](C(=O)N[C@@H](Cc1ccc(O)cc1)C(N)=O)[C@@H](C)O)C(C)C)[C@@H](C)O) [N-alpha-[(S)-4-Carboxy-4-(19-carboxynonadecanoylamino)butyryl]-[His1,Arg17]-pramlintide]
0.1 | HHCNTATCATQRLANFLRHSSNNFGPILPPTNVGSNTY-NH2 (disulfide 3-8; not fully specified (N-terminus); printed as N-alpha-[(S)-4-Carboxy-4-(19-carboxynonadecanoylamino)butyryl]-His-[His1,Arg17]-pramlintide) [N-alpha-[(S)-4-Carboxy-4-(19-carboxynonadecanoylamino)butyryl]-His-[His1,Arg17]-pramlintide]
0.1 | {C20 diacid-Trx-γGlu}-HCNTATCATQRLANFLHHSSNNFGPILPPTNVGSNTY-NH2 (disulfide 2-7; SMILES CC[C@H](C)[C@H](NC(=O)[C@@H]1CCCN1C(=O)CNC(=O)[C@H](Cc1ccccc1)NC(=O)[C@H](CC(N)=O)NC(=O)[C@H](CC(N)=O)NC(=O)[C@H](CO)NC(=O)[C@H](CO)NC(=O)[C@H](Cc1c[nH]cn1)NC(=O)[C@H](Cc1c[nH]cn1)NC(=O)[C@H](CC(C)C)NC(=O)[C@H](Cc1ccccc1)NC(=O)[C@H](CC(N)=O)NC(=O)[C@H](C)NC(=O)[C@H](CC(C)C)NC(=O)[C@H](CCCNC(=N)N)NC(=O)[C@H](CCC(N)=O)NC(=O)[C@@H](NC(=O)[C@H](C)NC(=O)[C@@H]1CSSC[C@H](NC(=O)[C@H](Cc2c[nH]cn2)NC(=O)CC[C@H](NC(=O)[C@H]2CC[C@H](CNC(=O)CCCCCCCCCCCCCCCCCCC(=O)O)CC2)C(=O)O)C(=O)N[C@@H](CC(N)=O)C(=O)N[C@@H]([C@@H](C)O)C(=O)N[C@@H](C)C(=O)N[C@@H]([C@@H](C)O)C(=O)N1)[C@@H](C)O)C(=O)N[C@@H](CC(C)C)C(=O)N1CCC[C@H]1C(=O)N1CCC[C@H]1C(=O)N[C@H](C(=O)N[C@@H](CC(N)=O)C(=O)N[C@H](C(=O)NCC(=O)N[C@@H](CO)C(=O)N[C@@H](CC(N)=O)C(=O)N[C@H](C(=O)N[C@@H](Cc1ccc(O)cc1)C(N)=O)[C@@H](C)O)C(C)C)[C@@H](C)O)
0.4 | KCK([AEEA-Glu-Glu-C20 diacid])TATCATQRLANFLHHSSDNFGPILPPTNVGSNTY-NH2 (disulfide 2-7)
